test: yeast display, Sf9 membrane polyspecificity reagent, FACS + sequencing; frameworks hold sequencing errors
In short: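 Nanobodies came from a synthetic yeast display library in Saccharomyces cerevisiae BJ5465, induced with galactose for 36–48 hours and stained for 1 hour at 4 °C with 10% biotinylated, detergent-solubilized Sf9 membrane reagent. Cells were enriched on streptavidin microbeads and then FACS-sorted, with low and high (top ~1%) gates set on anti-HA fluorescence for expression and streptavidin fluorescence for reagent binding. Each polyreactivity label reflects the gate a clone came from. Genes were amplified by colony PCR, sequenced by MiSeq 2 × 250 and filtered by CDR length.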

Sequence	polyreactivity (PSR sort gate)
QVQLVESGGGLVQAGGSLRLSCAASGSIFRYYAMGWYRQAPGKEREFVAAINTNDAGTYYADSVKGRFTISRDNAKNTVYLQMNSLKPEDTAVYYCAADTGYPFWYDYWGQGTQVTVSS	high polyreactivity
QVQLVESGGGLVQAGGSLRLSCAASGRTLRSYAMGWYRQAPGKERELVARISSGGSTTYADSVKGRFTISRDNAKNTVYLQMNSLKPEDTAVYYCNAQLVYTVYRLRYYHWGQGTQVTVSS	high polyreactivity
QVQLVESGGGLVQAGGSLRLSCAASGSTFGPYAMGWYRQAPGKERELVADISGGSTNYADSVKGRFTISRDNAKNTVYLQMNSLKPEDTAVYYGAADSYPAYLGFVGFDYWGQGTQVTVSS	low polyreactivity
QVQLVESGGGLVQAGGSLRLSCAASGFTFYYYAMGWYRQAPGKERELVASISSSGGSTYYADSVKGRFTISRDNAKNTVYLQMNSLKPEDTAGYYCARYRRRYDTYPGDYWGQGTQVTVSS	high polyreactivity
QVQLVESGGGLVQAGGSLRFRCAASGRIFSYVMGWYRQAPGKERELVAAISTGGGNTYYADSVKGRFTISRDNAKNTVYLQMNSLKPEDTAVYYCAADYYAGTFDYWGQGTQVTVSS	high polyreactivity
QVQLVESGGGLVQAGGSLRLSYAASGSTFHLYAMGWYRQAPGKERELVASINSGGSTYYADSVKGRFTISRDNAKNTVYLQMNSLKPEDTAVYYCAADAYSWWGRWERYPYTTMYYWGQGTQVTVSS	low polyreactivity
QVQLVESGGGLVQAGGSLRLSCAASGPIFATNAMGWYRQAPGKERELVASISSGGGSTYYADSVKGRFTISRDNAKNTVYLQMNSLKPEDTAVYYCAADYYTGYVWEDYYWGQGTQVTVSS	low polyreactivity
QVQLVESGGGFVQAGGSLRLSCAASGSIFRFYAMGWYRQAPGKERELVASITSGGSTNYADSVKGRFTISRDNAKNTVYLQMNSLKPEDTAVYYCAVRLKGYRRRDYWGQGTQVTVSS	high polyreactivity
QVQLVESGVGLVQAGGSLRLSCAASGLTFRYYAMGWYRQAPGKERELVAAITRRGSTYYADSVKGRFTISRDNAKNTVYLQMISLKPEVTAVYYCATVTGFHSSPLRDLDYWGQGTQVTVSS	high polyreactivity
QLHLVESGGGLVQAGGSLRLSCAASGLTFDQYAMGWYRQAPGKERELVAAISGSDSTYYADSVKGRFTISRDNAKNTVYLQMNSLKPEDTAVYYCAASGDYVNIITGERFDARLYDYWGQGTQVTVSS	low polyreactivity
QVQLVESGGGLVQAGGSLRLSCAASGSIFRWYAMGWYRQAPGKERELVAGISSTGGSTYYADSVKGRFTISRDNAKNTVYLQMNSLKPEDTAVLYCAVVSYPSAFRRYNYWGQGTQVTVSS	high polyreactivity
QVQLVESGGGLVQAGGSLRLTCAASGLIFPFYAMGWYRQATGKERELVAAISSRGGSTYYADSVKGRFTISRDNAKNTVYLQMSSLKPEDTAVYYCAADYGEEYEYSGQGTQVTVSS	high polyreactivity
QVHLVESGGGLVLAGGSLRLSCAASGRIFSFYAMGWYRQAPGKERELVAAISSGGNTYYADSLKGRFTISRDNAKNTVYLQMNSLKPEDTAVYYCATGYRNLSSRYGYWGQGTQVSVSS	high polyreactivity
QVQRVESGVGIVQAGGSLRLSSAASGFIFSRYAMGWYRQAPGNERQLVAAIRFSGSITYYADSVKGRFTISRDNAKNTVYLQMNSLKPEDTAVYYCAAPLTFFKRVYYWGQGTQLTVSS	high polyreactivity
QVQLVESGGGLVQAGGRLRLSCAASGGTFYYYAMGWYRQAPGKERELVAAIRRRGGGTYSADSVKGRFTISRDNAKNTVYLQMNSLKPEDTAVYYCARDKLRSWWGDYNTYYPDDSWGQGTQVTVSS	high polyreactivity
QVQLVESGGGLVQAGGSLRLSCAASASTFYTKVMGWYRPAPGKERELVAAISSSGSRTYYADSVKGRFTISRDNAKNTVYLQMNSLKPEDTAVYYCNAYYRLEPDDGDYDYWGQGTQVTVSS	high polyreactivity
QVQLEESGGGLVQAGGSLRLSCAASGINLTGYTMGWYRKATGKERQLVAAITYGGTSTYYADSVKGRFTISRDNAKNTVYLQMNSLKPEDTAVYYCAALYRGPRYGYWGQGTQVTVSS	high polyreactivity
QVQLVESGGGLVQAGGSLRLSCAASGYIFTRNAMGWYRQAPGKDRELVAAISQGGGSTYYADSVKGRFTISRDNAKNTVYFQMNSLKPEDTAVYYCAAYFYTFVGYDYWGQGTQVTVSS	low polyreactivity
QVQLVESGGGFVQAGGSLRLSCAASGSTFSVYAMGWYRQAPGKERELVATIRRGGSTYADSVKGRFTISRDNAKNTVYLQMNSLKPEDTAVYDCAADAYVSSQPMDYWGQGTQVTVSS	high polyreactivity
QVQLVESGGCLVQAGGSLRLSCAASGSIFNRYTMGWYRQAPGKEREFVAAISSSGTSTYYADSVKGRFTISRDNAKNTVYLQMNILKPEDTAVYYCAADWTGGFYTWYVIPYDYWGQGTQVTVSS	low polyreactivity
QVQLVESGGGLVQAGGSLRLSCAGSGIIFSRYAMGWYRQAPGKERELVAAISSSGGTTYYADSVKGRFTISRDNAKNTVYLQMNSQKPEDTAVYYCYAPAFYKYKSFYAHSGYDYWGQGTQVTVSS	high polyreactivity
QVQLVESGGGLVQAGGSLRLSCAASGRIFRIYTMGWYRQAPGKERELVAAITKSGGSTSYADSVKGRFTISRDNAKNTVYLQMNSLKPEDTAVYYCNAKGWSRPPGYDYWGQGTQLTVSS	high polyreactivity
QVQLVESGGGLVQAGGSLRLSCAASGRTFKKYAMGWYRQAPGKERELVAAIRRSGGSTYYADSVKGRFTISRDNAKNTVYLQMNSLKPEDTAVYYCAADFRVGRYDYWGQGTQVTVSS	high polyreactivity
LQLVESGGGLVQAGGSLRLTSAASGSTFHRYAMGWYRQSPGKERELVAAISSRGGSTYYADSVKGRFTISRDNAKYTVYLQMNSLKPEDTAVYYCAVYGGRSGVPFDSMDYWGQGTQVTVTS	high polyreactivity
QVQLVESGGGLVQAGGSLRLSCAASGSTLTEYAMGWYRQAPGKEREFVAAISRSAGSTYYADSVKGRFTISRDNAKNTVYLQMNSLKPEETAVYYCAVAVRVGFDYFSGQADIYYYWGQGTQVTVSS	low polyreactivity
QVHLVESGGGLVQAGGSLRLSCAASGLTFNRYTMGWYRQAPGKESELVAAITSSGSTYYADSVKGRFTISRDNAKNTVNLQMNSLKPEDTAVDYCNTVYYDWFHYDYWGQGTQVTVSS	high polyreactivity
QGQLVESGGGLVQAGGSLRLSCAASGRIFQMYTMGWYRQAPGKERELDAAITSGTSTSYADSVKGRFTISRDNAKNPFYLQMNSLKPEDTAVYYCNKGSVCYSSVFVPYESDYWGQGTQVTVSS	low polyreactivity
HVQLVESGGGLVQAGGSLRLSCAASGSNFDKYAMGGYRQAPGKERELGAAISRGGSSTYYADSVKGRFTISRDNAKNTVYLQMNSLKPEDTAVYYCAARIRNWPAMDYWGQGTQVTVSS	high polyreactivity
QVQLVESGGGLVQAGGSLRLSCAASGFTFVYYAMGWYRQAPGKERELVAAITSADSTNYADSVKGRFTISRDNAKNTVYLQMNSLKPEDTAVYYCNAVYDYYRQSKWTMVYWGQGTQVTVSS	low polyreactivity
QVQLVESGGGLVQAGGSLRLSCAASGRIFSVYAMGWYRQAPGKEREFVASISWRGGRTYYADSVKGRFTISRDNAKNTFYLQMNSLKPEDTAVYYCAAVSYPAVYGFDYWGQGTQVTVSS	high polyreactivity

Reference: the nanobody polyreactivity screen of Harvey et al. (2022)
